Data published in patent publication US20070004636.

Legend:
[1] = target: T1, human hepatocyte nuclear factor 1α (HNF-1α), His and Xpress-tagged at the N-terminus (not fully specified)
T1 chain: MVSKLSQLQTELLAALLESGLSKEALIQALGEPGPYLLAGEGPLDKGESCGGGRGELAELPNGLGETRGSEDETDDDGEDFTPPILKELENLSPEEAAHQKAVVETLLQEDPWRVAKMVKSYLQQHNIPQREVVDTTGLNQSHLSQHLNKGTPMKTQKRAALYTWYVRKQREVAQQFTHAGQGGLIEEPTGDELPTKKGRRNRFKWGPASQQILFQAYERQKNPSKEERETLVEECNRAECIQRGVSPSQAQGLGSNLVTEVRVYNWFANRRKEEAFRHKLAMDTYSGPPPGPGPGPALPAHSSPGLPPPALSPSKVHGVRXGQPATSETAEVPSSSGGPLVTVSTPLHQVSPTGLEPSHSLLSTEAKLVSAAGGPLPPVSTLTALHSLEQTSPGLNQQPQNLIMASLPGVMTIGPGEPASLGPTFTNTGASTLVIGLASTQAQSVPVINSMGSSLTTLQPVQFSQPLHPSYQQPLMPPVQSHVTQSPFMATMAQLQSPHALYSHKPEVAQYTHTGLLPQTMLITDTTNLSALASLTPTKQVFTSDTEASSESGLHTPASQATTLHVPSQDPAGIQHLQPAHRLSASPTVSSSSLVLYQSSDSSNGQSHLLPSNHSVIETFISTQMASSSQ

[2] = target: human insulin promoter factor 1 (IPF-1), His and Xpress-tagged at the N-terminus
Chain of human insulin promoter factor 1 (IPF-1), His and Xpress-tagged at the N-terminus (chain, as listed by the source): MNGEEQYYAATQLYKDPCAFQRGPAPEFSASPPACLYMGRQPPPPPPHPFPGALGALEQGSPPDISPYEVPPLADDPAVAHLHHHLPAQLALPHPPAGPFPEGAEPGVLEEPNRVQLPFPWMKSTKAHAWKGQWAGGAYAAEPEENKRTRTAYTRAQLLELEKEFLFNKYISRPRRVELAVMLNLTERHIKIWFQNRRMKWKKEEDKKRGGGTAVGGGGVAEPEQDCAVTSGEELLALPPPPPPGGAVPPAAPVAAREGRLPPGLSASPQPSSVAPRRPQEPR

[3] = target: T2, human hepatocyte nuclear factor 4α (HNF-4α), His and Xpress-tagged at the N-terminus
T2 chain: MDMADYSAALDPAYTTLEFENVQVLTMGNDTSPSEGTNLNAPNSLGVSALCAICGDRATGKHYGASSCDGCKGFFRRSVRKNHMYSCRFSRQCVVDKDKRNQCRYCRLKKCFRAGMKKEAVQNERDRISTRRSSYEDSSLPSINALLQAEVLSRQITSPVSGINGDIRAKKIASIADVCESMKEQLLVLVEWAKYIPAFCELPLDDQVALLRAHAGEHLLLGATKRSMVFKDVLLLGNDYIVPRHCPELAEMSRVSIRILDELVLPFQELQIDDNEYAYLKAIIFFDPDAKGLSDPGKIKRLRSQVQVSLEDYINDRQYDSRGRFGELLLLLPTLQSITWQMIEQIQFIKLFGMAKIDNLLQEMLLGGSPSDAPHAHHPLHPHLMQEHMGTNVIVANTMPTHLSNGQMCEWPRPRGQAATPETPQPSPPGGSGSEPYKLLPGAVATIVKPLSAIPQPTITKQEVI

B1: rat m-calpain (Calpain 2, rat recombinant, E. coli, Calbiochem, Inc.) (protein)
chain: MAGIAMKLAKDREAAEGLGSHERAIKYLNQDYETLRNECLEAGALFQDPSFPALPSSLGFKELGPYSSKTRGIEWKRPTEICADPQFIIGGATRTDICQGALGDCWLLAAIASLTLNEEILARVVPLDQSFQENYAGIFHFQFWQYGEWVEVVVDDRLPTKDGELLFVHSAEGSEFWSALLEKAYAKINGCYEALSGGATTEGFEDFTGGIAEWYELRKPPPNLFKIIQKALEKGSLLGCSIDITSAADSEAVTYQKLVKGHAYSVTGAEEVESSGSLQKLIRIRNPWGQVEWTGKWNDNCPSWNTVDPEVRANLTERQEDGEFWMSFSDFLRHYSRLEICNLTPDTLTCDSYKKWKLTKMDGNWRRGSTAGGCRNYPNTFWMNPQYLIKLEEEDEDDEDGERGCTFLVGLIQKHRRRQRKMGEDMHTIGFGIYEVPEELTGQTNIHLSKNFFLTTRARERSDTFINLREVLNRFKLPPGEYVLVPSTFEPHKNGDFCIRVFSEKKADYQTVDDEIEANIEEIEANEEDIGDGFRRLFAQLAGEDAEISAFELQTILRRVLAKREDIKSDGFSIETCKIMVDMLDEDGSGKLGLKEFYILWTKIQKYQKIYREIDVDRSGTMNSYEMRKALEEAGFKLPCQLHQVIVARFADDELIIDFDNFVRCLVRLEILFKIFKQLDPENTGTIQLDLISWLSFSVL
in vitro protein degradation test, Western blotting with anti-Omni/M21 and anti-HNF-1α antibody [1]: the in vitro degradation of HNF-1α by each of human µ-calpain, rabbit m-calpain and rat m-calpain was observed
in vitro protein degradation test, Western blotting with anti-Xpress and anti-IPF-1 antibody [2]: the in vitro degradation of IPF-1 by each of human µ-calpain, rabbit m-calpain and rat m-calpain was observed

B2: human µ-calpain extracted from human erythrocytes (Calpain 1, human erythrocytes; Calbiochem, Inc.) (protein)
chain: SEEIITPVYCTGVSAQVQKQRARELGLGRHENAIKYLGQDYEQLRVRCLQSGTLFRDEAFPPVPQSLGYKDLGPNSSKTYGIKWKRPTELLSNPQFIVDGATRTDICQGALGDCWLLAAIASLTLNDTLLHRVVPHGQSFQNGYAGIFHFQLWQFGEWVDVVVDDLLPIKDGKLVFVHSAEGNEFWSALLEKAYAKVNGSYEALSGGSTSEGFEDFTGGVTEWYELRKAPSDLYQIILKALERGSLLGCSIDISSVLDMEAITFKKLVKGHAYSVTGAKQVNYRGQVVSLIRMRNPWGEVEWTGAWSDSSSEWNNVDPYERDQLRVKMEDGEFWMSFRDFMREFTRLEICNLTPDALKSRTIRKWNTTLYEGTWRRGSTAGGCRNYPATFWVNPQFKIRLDETDDPDDYGDRESGCSFVLALMQKHRRRERRFGRDMETIGFAVYEVPPELVGQPAVHLKRDFFLANASRARSEQFINLREVSTRFRLPPGEYVVVPSTFEPNKEGDFVLRFFSEKSAGTVELDDQIQANLPDEQVLSEEEIDENFKALFRQLAGEDMEISVKELRTILNRIISKHKDLRTKGFSLESCRSMVNLMDRDGNGKLGLVEFNILWNRIRNYLSIFRKFDLDKSGSMSAYEMRMAIESAGFKLNKKLYELIITRYSEPDLAVDFDNFVCCLVRLETMFRFFKTLDTDLDGVVTFDLFKWLQLTMFA
in vitro protein degradation test, Western blotting with anti-Omni/M21 and anti-HNF-1α antibody [1]: the in vitro degradation of HNF-1α by each of human µ-calpain, rabbit m-calpain and rat m-calpain was observed
in vitro protein degradation test, Western blotting with anti-HNF-4α antibody [3]: the degradation of HNF-4α by human µ-calpain was observed
in vitro protein degradation test, Western blotting with anti-Xpress and anti-IPF-1 antibody [2]: the in vitro degradation of IPF-1 by each of human µ-calpain, rabbit m-calpain and rat m-calpain was observed
